± gives the standard error. Variants at the floor of the assay were thinned out.
B1: glmS ribozyme (parent)
chain: AUAAAAGCGCCAGAACUACAGAAAUGUAGUUGACGAGGAGGAGGUUUAUCGAAUUUUCGGCGGAUGCCUCCAAA

Columns and labels:
Conditions in all cases: with glucosamine-6-phosphate
glucosamine-6-phosphate [1] = variants of: B1; assay: self-cleavage kobs at 40 uM GlcN6P; higher = faster cleavage; RNA array
How it was run: (§1)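 In situ transcription by E. coli RNA polymerase produced barcoded ribozyme variants on sequenced MiSeq chips, and a hybridised Cy3 probe tracked them at 37 °C. Glucosamine-6-phosphate was flowed in at 40 μM to 10 mM in HEPES/KCl/Mg(OAc)2 buffer. kcat and KM were taken from weighted Michaelis–Menten fits of kobs values from exponential decay fits.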

glucosamine-6-phosphate [2] = variants of: B1; assay: self-cleavage kobs at 160 uM GlcN6P; higher = faster cleavage; RNA array
How it was run: as §1

glucosamine-6-phosphate [3] = variants of: B1; assay: self-cleavage kobs at 640 uM GlcN6P; higher = faster cleavage; RNA array
How it was run: as §1

glucosamine-6-phosphate [4] = variants of: B1; assay: self-cleavage kobs at 10000 uM GlcN6P; higher = faster cleavage; RNA array
How it was run: as §1

glucosamine-6-phosphate [5] = variants of: B1; assay: self-cleavage kobs at 2500 uM GlcN6P; higher = faster cleavage; RNA array
How it was run: as §1

Variant | self-cleavage kobs at 40 uM GlcN6P (glucosamine-6-phosphate [1]) [s⁻¹] | self-cleavage kobs at 160 uM GlcN6P (glucosamine-6-phosphate [2]) [s⁻¹] | self-cleavage kobs at 640 uM GlcN6P (glucosamine-6-phosphate [3]) [s⁻¹] | self-cleavage kobs at 10000 uM GlcN6P (glucosamine-6-phosphate [4]) [s⁻¹] | self-cleavage kobs at 2500 uM GlcN6P (glucosamine-6-phosphate [5]) [s⁻¹]
G9C C70A | < 1e-05 | < 1e-05 | < 1e-05 | < 1e-05 | –
G9C G37A G60C U65A | < 1e-05 | – | – | – | < 1e-05
G9U G43U C70G | < 1e-05 | – | – | < 1e-05 | –
C11G G38A | < 1e-05 | – | < 1e-05 | – | < 1e-05
C10A A39U U69C | < 1e-05 | – | – | < 1e-05 | –
C11A U45C A48G | < 1e-05 | – | < 1e-05 | < 1e-05 | < 1e-05
C10A A48G | < 1e-05 | < 1e-05 | < 1e-05 | < 1e-05 | –
G9C U55G | < 1e-05 | – | – | < 1e-05 | –
C10A A39U | < 1e-05 | < 1e-05 | < 1e-05 | < 1e-05 | –
G9U U31A C34U | < 1e-05 | < 1e-05 | – | – | –
C10G A33U G35U G60U | < 1e-05 | – | – | < 1e-05 | –
C11A C58A A64G | < 1e-05 | – | – | – | –
C10G A52C U56A C71U | < 1e-05 | – | – | – | –
C10G G29U U31C A36U C68A C71U | < 1e-05 | – | – | – | –
C10G G29A | < 1e-05 | – | < 1e-05 | < 1e-05 | –
C10A U45G G63U | < 1e-05 | – | – | < 1e-05 | –
C11A C70G | 2.86e-05 ± 1.2e-05 | 4.84e-05 ± 2e-05 | 0.00013 ± 2.5e-05 | 3.06e-05 ± 1.1e-05 | 5.3e-05 ± 1.3e-05
C10A G62C | < 1e-05 | < 1e-05 | < 1e-05 | – | –
G9U A64G | < 1e-05 | < 1e-05 | – | < 1e-05 | –
C10A A14U | < 1e-05 | – | < 1e-05 | – | –
C10A A14C | < 1e-05 | – | < 1e-05 | – | < 1e-05
C11G A42G | < 1e-05 | < 1e-05 | < 1e-05 | – | –
C11G A42U | < 1e-05 | < 1e-05 | < 1e-05 | < 1e-05 | < 1e-05
C10U A33C | < 1e-05 | < 1e-05 | < 1e-05 | – | < 1e-05
G9U C10U A36U G51A C70G | < 1e-05 | – | – | – | –

Variant | self-cleavage kobs at 40 uM GlcN6P (glucosamine-6-phosphate [1]) [s⁻¹] | self-cleavage kobs at 160 uM GlcN6P (glucosamine-6-phosphate [2]) [s⁻¹] | self-cleavage kobs at 640 uM GlcN6P (glucosamine-6-phosphate [3]) [s⁻¹] | self-cleavage kobs at 10000 uM GlcN6P (glucosamine-6-phosphate [4]) [s⁻¹] | self-cleavage kobs at 2500 uM GlcN6P (glucosamine-6-phosphate [5]) [s⁻¹]
C11A A15G C58G C68A | 8.59e-05 ± 2.2e-05 | – | – | 0.000145 ± 2.6e-05 | –
G9C G44A | < 1e-05 | < 1e-05 | < 1e-05 | < 1e-05 | < 1e-05
C10U G60C | < 1e-05 | < 1e-05 | < 1e-05 | < 1e-05 | < 1e-05
C10G G63A | < 1e-05 | – | – | < 1e-05 | –
C10A G41U G44U | < 1e-05 | < 1e-05 | < 1e-05 | – | < 1e-05
C10A C50G | 7.92e-05 ± 1.7e-05 | 0.000235 ± 5.6e-05 | 0.000189 ± 4.1e-05 | 6.81e-05 ± 1.2e-05 | 0.000174 ± 3.5e-05
C11G G37C U55A C68G | < 1e-05 | – | 0.000386 ± 0.00018 | – | –
C10U G32A A39C U57C C61G C68G | < 1e-05 | – | < 1e-05 | < 1e-05 | –
C11A G32U A42G | < 1e-05 | – | – | – | –
G9U G60U | < 1e-05 | – | < 1e-05 | – | < 1e-05
C10G U47C U54C | < 1e-05 | – | – | – | < 1e-05
C11G A14G A39U | < 1e-05 | – | – | – | –
C11A G37U A42U C68U | < 1e-05 | – | < 1e-05 | – | –
C10G G41U | < 1e-05 | < 1e-05 | < 1e-05 | < 1e-05 | < 1e-05
C10G G35C G40A U57G | < 1e-05 | – | – | – | < 1e-05
C10U G43A C70G | < 1e-05 | – | – | – | –
C10G A14U C34A U49G | < 1e-05 | – | – | – | –
G9U A53U | < 1e-05 | < 1e-05 | < 1e-05 | < 1e-05 | –
C10U C34A | < 1e-05 | < 1e-05 | < 1e-05 | < 1e-05 | –
C11G G13A G32U | < 1e-05 | – | – | – | –
G9C G62A | < 1e-05 | – | < 1e-05 | < 1e-05 | –
C10U A39U G43C | < 1e-05 | – | – | < 1e-05 | –
C10U A36U U65G | < 1e-05 | – | – | – | –
C11A G29U C67G C68G | 3.88e-05 ± 1.7e-05 | – | – | – | –
C10U C50U U57C | < 1e-05 | – | – | – | –

Variant | self-cleavage kobs at 40 uM GlcN6P (glucosamine-6-phosphate [1]) [s⁻¹] | self-cleavage kobs at 160 uM GlcN6P (glucosamine-6-phosphate [2]) [s⁻¹] | self-cleavage kobs at 640 uM GlcN6P (glucosamine-6-phosphate [3]) [s⁻¹] | self-cleavage kobs at 10000 uM GlcN6P (glucosamine-6-phosphate [4]) [s⁻¹] | self-cleavage kobs at 2500 uM GlcN6P (glucosamine-6-phosphate [5]) [s⁻¹]
C10U G29C C61A | < 1e-05 | – | – | – | –
C10U G32A G43A C71A | < 1e-05 | – | – | – | –
C10A A14G G44C | < 1e-05 | – | – | < 1e-05 | < 1e-05
C10U A64U | < 1e-05 | < 1e-05 | < 1e-05 | < 1e-05 | < 1e-05
C10U A64C | < 1e-05 | – | < 1e-05 | – | < 1e-05
C10U G40U | < 1e-05 | – | – | < 1e-05 | –
C10U G40C | < 1e-05 | < 1e-05 | – | < 1e-05 | < 1e-05
C10G G51C | < 1e-05 | < 1e-05 | < 1e-05 | < 1e-05 | –
C11A G38U C67G C68U | 0.000296 ± 7.3e-05 | – | – | 0.000394 ± 9.3e-05 | –
C10G G37U G40C G41U C50G | < 1e-05 | – | – | – | –
C10U G21U G59C | < 1e-05 | – | < 1e-05 | – | < 1e-05
C11A G29U G32U G44A | < 1e-05 | – | – | – | –
G9U U30G | < 1e-05 | – | < 1e-05 | < 1e-05 | –
C11A G37C G60A | < 1e-05 | – | – | – | –
G9C G59U | < 1e-05 | < 1e-05 | < 1e-05 | – | < 1e-05
C11A G38A G44C | < 1e-05 | – | – | < 1e-05 | –
G9U G66A | < 1e-05 | < 1e-05 | < 1e-05 | < 1e-05 | –
C10U C11G | < 1e-05 | – | < 1e-05 | < 1e-05 | < 1e-05
C10U A12U G51U U56A | < 1e-05 | – | – | < 1e-05 | –
C11G G13A G41U U45G G66A | < 1e-05 | – | – | – | –
C11A U57A G60U | < 1e-05 | – | – | – | –
C11A G13C A53U C58G A64U U69A | 7.02e-05 ± 2.7e-05 | – | – | – | –
C10G G59C | < 1e-05 | – | < 1e-05 | – | –
C11A U31C G44C C70U | < 1e-05 | – | – | – | –
C10U U46G | < 1e-05 | < 1e-05 | – | – | –

Variant | self-cleavage kobs at 40 uM GlcN6P (glucosamine-6-phosphate [1]) [s⁻¹] | self-cleavage kobs at 160 uM GlcN6P (glucosamine-6-phosphate [2]) [s⁻¹] | self-cleavage kobs at 640 uM GlcN6P (glucosamine-6-phosphate [3]) [s⁻¹] | self-cleavage kobs at 10000 uM GlcN6P (glucosamine-6-phosphate [4]) [s⁻¹] | self-cleavage kobs at 2500 uM GlcN6P (glucosamine-6-phosphate [5]) [s⁻¹]
C10G G13A U47G | < 1e-05 | – | – | – | –
G9U A15G | < 1e-05 | – | < 1e-05 | – | < 1e-05
G9U U45G | < 1e-05 | < 1e-05 | < 1e-05 | < 1e-05 | < 1e-05
G9C G32C C68A | < 1e-05 | – | < 1e-05 | < 1e-05 | < 1e-05
C10A U30C C61A | < 1e-05 | – | – | – | –
C11G C16A U69G | 6.17e-05 ± 2.3e-05 | – | – | 5.6e-05 ± 1.7e-05 | –
G9U A36G | < 1e-05 | – | – | < 1e-05 | < 1e-05
G9U G35C G43A | < 1e-05 | < 1e-05 | < 1e-05 | – | –
G9C G13U G44C U45G | < 1e-05 | – | < 1e-05 | – | < 1e-05
G9U G35C G66U | < 1e-05 | – | – | < 1e-05 | –
C11A C50G | 5.74e-05 ± 1.4e-05 | 0.000276 ± 7.2e-05 | 0.000195 ± 4e-05 | 8.61e-05 ± 1.6e-05 | 9.24e-05 ± 1.4e-05
C11G C58G | < 1e-05 | < 1e-05 | < 1e-05 | < 1e-05 | –
C11G A15C G29U A64U C70U | < 1e-05 | – | – | < 1e-05 | –
C11A A33U U54A | < 1e-05 | – | – | – | –
C10G A15G A64G | < 1e-05 | – | – | – | –
C10U A48C | < 1e-05 | < 1e-05 | < 1e-05 | < 1e-05 | < 1e-05
C10U A15U G44U U46G G63U A64G | < 1e-05 | – | – | < 1e-05 | –
C10U C67U C70U | < 1e-05 | – | – | < 1e-05 | –
C10G C11A A42U | < 1e-05 | – | – | < 1e-05 | < 1e-05
C10U A52C | < 1e-05 | – | – | < 1e-05 | –
C11A A36U G62C C71G | < 1e-05 | < 1e-05 | – | < 1e-05 | –
C11A G41C | < 1e-05 | < 1e-05 | < 1e-05 | – | < 1e-05
